Consider three molecules from patent publication US20040171074A1, “Structures of substrate binding pockets of SCF complexes” (MOUNT SINAI HOSPITAL, priority 2002, published 2004).

One experiment relates to phospho-Sic1. The experiment in a line: P-Sic1 pull down: in vitro capture of phospho-Sic1 on immobilized wild type or mutant Cdc4-GST-Skp1, anti-Sic1 immunoblot. It is filed as binding, yeast. To be noted: Sic1 phosphorylated with Cln2-Cdc28, captured onto GST-Skp1/Cdc4 resin, anti-Sic1 detection. The procedure: (§1) Mutational analysis of the CPD binding surface. Mutants were tested in vitro by ability to bind phosphorylated Sic1 and then captured onto GST-Skp1/Cdc4 resin and detected with anti-sic1 antibody. Mutants were tested in vivo by ability to degrade GAL1-SIC1 or various phosphorylation mutants. Sites are as follows: 3=Thr 33, Thr 45, Ser 76; 4=Thr 5, Thr 33, Thr 45, Ser 76; 5=Thr 2, Thr 5, Thr 33, Thr 45, Ser 76; 6=Thr 2, Thr 5, Thr 33, Thr 45, Ser 69, Ser 76; 7=Thr 2, Thr 5, Thr 33, Thr 45, Ser 69, Ser 76, Ser 80. GAL1-SIC1 plasmids were transformed into a cdc4Δ strain containing a copy of CDC4 on a TRP1 ARS CEN plasmid. Strains were incubated for 2 days at 30° C.
Bacterially expressed His6-Sic1 was phosphorylated with Cln2-Cdc28 kinase purified from baculovirus infected Sf9 cells as described before (Nature paper). 1 ug of WT or mutant Cdc4-GST-Skp1, immoblized on GSH-Sepharose resin, was incubated with 0.5 ug phospho-Sic1 at 4 C for 1 h and washed 4 times. Captured complexes were resolved on SDS-PAGE and Sic1 visualized by anti-Sic1 Western blotting and ECL. For IEF-2D analysis, several Sic1 phosphorylation reactions were carried out for different time periods to obtain a spectrum of Sic1 that were phosphorylated at different numbers of its nine CDK sites. This pool of phospho-Sic1 (2.5 ug) was incubated with 5 μg of WT or mutant Cdc4-GST-Skp1 as described above. Different phosphorylation states of Sic1 were separated by denaturing isoelectric focusing (IEF)-2D gel electrophoresis and visualized by anti-Sic1 Western blotting and ECL. IEF was performed using pH 3-10NL Immobiline gel strips and IPGphore IEF system (Amersham pharmacia).
(§2) Cdc4 functional assays. CDC4 mutant alleles were assessed for complementation of a cdc4A strain in a plasmid shuffle assay (Nash et al., 2001). Sensitivity to SIC1 dosage was determined by transformation with pMT837 (GAL1-SIC1) or pMT767 (GAL1-SIC1^T33V) and plating on glucose medium or galactose medium. For in vitro capture of phospho-Sic1 by Cdc4, 0.5 μg of bacterially-expressed ^HIS6Sic1 was phosphorylated with immobilized Cln2-Cdc28 kinase from baculovirus-infected Sf9 cells and then incubated with 1 μg of immobilized wild type or mutant Cdc4^263-744-GST-Skp1, at 4° C. for 1 hr, washed 4 times and visualized by anti-Sic1 immunoblot. For isoelectric focusing (IEF)-2D gel analyses, an evenly distributed pool of phospho-Sic1 isoforms was generated by combining different time points in a Sic1 phosphorylation reaction. 2.5 μg of the phospho-Sic1 pool was bound to 5 μg of immobilized wild type or mutant Cdc4^1-744-GST-Skp1. Captured isoforms were separated by denaturing IEF-2D gel electrophoresis using pH3-10NL Immobiline gel strips (Amersham) and visualized by anti-Sic1 immunoblot. Alternatively, the pool of phospho-Sic1 isoforms was incubated in solution with a ubiquitination reaction mix containing ATP, ubiquitin, yeast E1, Cdc34 and either wild type or mutant SCF^Cdc4 complex, composed of a 1:1 ratio of bacterial Cdc4-GST-Skp1 and insect cell-produced Cdc53-Rbx1, at 30° C. for 1 h as previously described (Nash et al., 2001).
On the technique in general: In western blotting, separated proteins are transferred to a membrane and probed.

For the next experiment, the system named is cdc4Δ strain. Briefly: plasmid shuffle assay: complementation of a cdc4Δ strain by CDC4 alleles. It is filed as cell-based, yeast. To be noted: viability of cdc4Δ strain on 5-FOA, 2 days at 30° C. On the procedure: (§3) All mutants on a TRP1 ARS CEN plasmid were transformed into a cdc4Δ strain (MT 1259) containing a wildtype copy of CDC4 on a URA3 ARS CEN plasmid. Cells were plated on either Trp^−Ura^− or 5-FOA medium for 2 days at 30° C. Viable cells on 5-FOA were grown in Trp medium and transformed with either wild type GAL1-SIC1, GAL1-SIC T45A, or GAL1-SIC T33V on a LEU2 ARS CEN pasmid. Cells were then plated on Leu- Trp-plates containing either glucose or galactose and incubated for 2 days at 30° C.
as §2

Experiment [1] concerns cdc4Δ strain overexpressing SIC1. Briefly: sensitivity to SIC1 dosage: GAL1-SIC1 overexpression in strains bearing CDC4 alleles. In kind it is cell-based, yeast. To be noted: for gal Sic1T33V: GAL1-SIC1 T33V (partially stabilized Sic1); for gal Sic1T33V / gal Sic1T45A / gal Sic1 wt: galactose, 2 days at 30° C.; for gal Sic1T45A: GAL1-SIC1 T45A; for gal Sic1 wt: GAL1-SIC1 wild type; for viability / sensitivity to increased SIC1 dosage: Sic1 wt or stabilized Sic1(T33V) or Sic1(T45A) over-expressed under a galactose promoter. The procedure:
as §1, §3
Since the cell viability assay nay be masking subtle functional roles for the conserved Cdc4 residues, function was assayed in vivo under more stringent conditions in which Sic1 wt or the stabilized mutants, Sic1 (T33V) or Sic1(T45A) are over-expressed under a galactose promoter. This should amplify defects in cdc4 function. Under these conditions, Trp 717, Tyr 548 and the double mutant K404D/R443D are lethal showing that these residues are in fact important for functions
as §2

B1: W717N: mutant cdc4 polypeptide (protein)
chain: MGSFPLAEFPLRDIPVPYSYRVSGGIASSGSVTALVTAAGTHRNSSTAKTVETEDGEEDIDEYQRKRAAGSGESTPERSDFKRVKHDNHKTLHPVNLQNTGAASVDNDGLHNLTDISNDAEKLLMSVDDGSAAPSTLSVNMGVASHNVAAPTTVNAATITGSDVSNNVNSATINNPMEEGALPLSPTASSPGTTTPLAKTTKTINNNNNIADLIESKDSIISPEYLSDEIFSAINNNLPHAYFKNLLFRLVANMDRSELSDLGTLIKDNLKRDLITSLPFEISLKIFNYLQFEDIINSLGVSQNWNKIIRKSTSLWKKLLISENFVSPKGFNSLNLKLSQKYPKLSQQDRLRLSFLENIFILKNWYNPKFVPQRTTLRGHMTSVITCLQFEDNYVITGADDKMIRVYDSINKKFLLQLSGHDGGVWALKYAHGGILVSGSTDRTVRVWDIKKGCCTHVFKGHNSTVRCLDIVEYKNIKYIVTGSRDNTLHVWKLPKESSVPDHGEEHDYPLVFHTPEENPYFVGVLRGHMASVRTVSGHGNIVVSGSYDNTLIVWDVAQMKCLYILSGHTDRIYSTIYDHERKRCISASMDTTIRIWDLENIWNNGECSYATNSASPCAKILGAMYTLQGHTALVGLLRLSDKFLVSAAADGSIRGWDANDYSRKFSYHHTNLSAITTFYVSDNILVSGSENQFNIYNLRSGKLVHANILKDADQINSVNFKGKTLVAAVEKDGQSFLEILDFSKASKINYVSNPVNSSSSSLESISTSLGLTRTTIIP
As to B1, the P-Sic1 pull down entry in the experiment with phospho-Sic1 is “bind”; with phospho-Sic1 (listed as Trp717) it was “fully competent”; in the experiment on phospho-Sic1 (listed as Trp717Asn), “did not overtly affect”. Moreover, the values for the shuffle entry with cdc4Δ strain and in the experiment on cdc4Δ strain (listed as Trp717) were “alive” and “viable”, respectively. Further, the figures for the “gal Sic1T33V” value in experiment [1] and in experiment [1] (listed as Trp717Asn) were “dead” and “conferred sensitivity”, respectively. The “gal Sic1T45A” value in experiment [1] was “dead”. The “gal Sic1 wt” value in experiment [1] was “alive”. Also, the “viability / sensitivity to increased SIC1 dosage” value in experiment [1] was “lethal”.

B2: R443D: mutant cdc4 polypeptide (protein)
chain: MGSFPLAEFPLRDIPVPYSYRVSGGIASSGSVTALVTAAGTHRNSSTAKTVETEDGEEDIDEYQRKRAAGSGESTPERSDFKRVKHDNHKTLHPVNLQNTGAASVDNDGLHNLTDISNDAEKLLMSVDDGSAAPSTLSVNMGVASHNVAAPTTVNAATITGSDVSNNVNSATINNPMEEGALPLSPTASSPGTTTPLAKTTKTINNNNNIADLIESKDSIISPEYLSDEIFSAINNNLPHAYFKNLLFRLVANMDRSELSDLGTLIKDNLKRDLITSLPFEISLKIFNYLQFEDIINSLGVSQNWNKIIRKSTSLWKKLLISENFVSPKGFNSLNLKLSQKYPKLSQQDRLRLSFLENIFILKNWYNPKFVPQRTTLRGHMTSVITCLQFEDNYVITGADDKMIRVYDSINKKFLLQLSGHDGGVWALKYAHGGILVSGSTDDTVRVWDIKKGCCTHVFKGHNSTVRCLDIVEYKNIKYIVTGSRDNTLHVWKLPKESSVPDHGEEHDYPLVFHTPEENPYFVGVLRGHMASVRTVSGHGNIVVSGSYDNTLIVWDVAQMKCLYILSGHTDRIYSTIYDHERKRCISASMDTTIRIWDLENIWNNGECSYATNSASPCAKILGAMYTLQGHTALVGLLRLSDKFLVSAAADGSIRGWDANDYSRKFSYHHTNLSAITTFYVSDNILVSGSENQFNIYNLRSGKLVHANILKDADQIWSVNFKGKTLVAAVEKDGQSFLEILDFSKASKINYVSNPVNSSSSSLESISTSLGLTRTTIIP
In the case of B2, in the experiment with phospho-Sic1, the P-Sic1 pull down result was “bind”. Also, the P-Sic1 pull down result in the experiment with phospho-Sic1 (listed as Arg443Asp) is reported as “indistinguishable from wild type”. For the same molecule, the shuffle result in the experiment with cdc4Δ strain was “alive”. Moreover, the shuffle result in the experiment with cdc4Δ strain (listed as Arg443Asp) is on record as “indistinguishable from wild type”. Further, in experiment [1], the “gal Sic1T33V” value is reported as “alive”, the “gal Sic1T45A” value was “dead”, the “gal Sic1 wt” value is reported as “alive” and the “viability / sensitivity to increased SIC1 dosage” value is recorded as “indistinguishable from wild type”.

B3: V384N: mutant cdc4 polypeptide (protein)
chain: MGSFPLAEFPLRDIPVPYSYRVSGGIASSGSVTALVTAAGTHRNSSTAKTVETEDGEEDIDEYQRKRAAGSGESTPERSDFKRVKHDNHKTLHPVNLQNTGAASVDNDGLHNLTDISNDAEKLLMSVDDGSAAPSTLSVNMGVASHNVAAPTTVNAATITGSDVSNNVNSATINNPMEEGALPLSPTASSPGTTTPLAKTTKTINNNNNIADLIESKDSIISPEYLSDEIFSAINNNLPHAYFKNLLFRLVANMDRSELSDLGTLIKDNLKRDLITSLPFEISLKIFNYLQFEDIINSLGVSQNWNKIIRKSTSLWKKLLISENFVSPKGFNSLNLKLSQKYPKLSQQDRLRLSFLENIFILKNWYNPKFVPQRTTLRGHMTSNITCLQFEDNYVITGADDKMIRVYDSINKKFLLQLSGHDGGVWALKYAHGGILVSGSTDRTVRVWDIKKGCCTHVFKGHNSTVRCLDIVEYKNIKYIVTGSRDNTLHVWKLPKESSVPDHGEEHDYPLVFHTPEENPYFVGVLRGHMASVRTVSGHGNIVVSGSYDNTLIVWDVAQMKCLYILSGHTDRIYSTIYDHERKRCISASMDTTIRIWDLENIWNNGECSYATNSASPCAKILGAMYTLQGHTALVGLLRLSDKFLVSAAADGSIRGWDANDYSRKFSYHHTNLSAITTFYVSDNILVSGSENQFNIYNLRSGKLVHANILKDADQIWSVNFKGKTLVAAVEKDGQSFLEILDFSKASKINYVSNPVNSSSSSLESISTSLGLTRTTIIP
As to B3, the figures for the P-Sic1 pull down entry in the experiment with phospho-Sic1, with phospho-Sic1 (listed as Val384) and in the experiment on phospho-Sic1 (listed as Val384Asn) were “bind”, “fully competent” and “indistinguishable from wild type”, respectively. The shuffle result is given as “alive” in the experiment on cdc4Δ strain, “viable” in the experiment on cdc4Δ strain (listed as Val384) and “indistinguishable from wild type” with cdc4Δ strain (listed as Val384Asn). Further, in experiment [1], the “gal Sic1T33V” value was “alive”. The “gal Sic1T45A” value in experiment [1] was “dead”. Moreover, the “gal Sic1 wt” value in experiment [1] is “alive”. The “viability / sensitivity to increased SIC1 dosage” value in experiment [1] is “indistinguishable from wild type”.
